Data reported in paper PMC8730436.

Test system: RplI (ribosomal large subunit protein L9) (Pseudomonas aeruginosa mPAO1)
Assay: MST

-24 nt-exsA RNA
Kd: 529 nM
